Results taken from US20250361296A1 (BIOCYTOGEN PHARMACEUTICALS BEIJING, published 2025).

How the values were obtained:
[1] = biological target: T1, human SIGLEC15 on CHO-S-hSIGLEC15 cells (human, UniProt Q6ZMC9 20-328); experiment: flow cytometry (MFI) on CHO-S-hSIGLEC15 cells; antibody sample: 40° C. 7 d
T1 sequence: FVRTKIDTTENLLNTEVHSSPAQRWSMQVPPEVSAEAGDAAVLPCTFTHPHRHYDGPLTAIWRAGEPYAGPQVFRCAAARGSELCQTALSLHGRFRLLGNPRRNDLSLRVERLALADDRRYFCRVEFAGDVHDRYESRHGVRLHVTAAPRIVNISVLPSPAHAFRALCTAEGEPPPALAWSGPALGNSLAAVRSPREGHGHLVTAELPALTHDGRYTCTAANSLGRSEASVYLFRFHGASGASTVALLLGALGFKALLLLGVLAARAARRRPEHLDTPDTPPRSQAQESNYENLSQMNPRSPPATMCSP
Description: (§1) In the activity detection experiment, 30 μL of CHO-S-hSIGLEC15 cells were added to the culture plate, and the antibody to be tested was added in a gradient dilution ([…]), and incubated at 4° C. for 30 min. The plate was washed with PBS, and diluted secondary antibody Anti-hIgG-Fc-Alex Flour 647 (RL1-H) (1:2000) was added, incubated at 4° C. for 30 min. The plate was washed once with PBS and the cells were resuspended for flow cytometry detection. MFI value was derived by FlowJo 7.6.1 analysis to calculate EC50.

[2] = biological target: T1, human SIGLEC15 on CHO-S-hSIGLEC15 cells; experiment: flow cytometry (MFI) on CHO-S-hSIGLEC15 cells; antibody sample: pH 3.5 6 h
Description: as §1

[3] = biological target: T1, human SIGLEC15 on CHO-S-hSIGLEC15 cells; experiment: flow cytometry (MFI) on CHO-S-hSIGLEC15 cells; antibody sample: freeze 10
Description: as §1

[4] = biological target: T1, human SIGLEC15 on CHO-S-hSIGLEC15 cells; experiment: flow cytometry (MFI) on CHO-S-hSIGLEC15 cells; antibody sample: pH 3.5 0 h
Description: as §1

[5] = biological target: T1, human SIGLEC15 on CHO-S-hSIGLEC15 cells; experiment: flow cytometry (MFI) on CHO-S-hSIGLEC15 cells; antibody sample: freeze 1
Description: as §1

[6] = biological target: T1, human SIGLEC15 on CHO-S-hSIGLEC15 cells; experiment: flow cytometry (MFI) on CHO-S-hSIGLEC15 cells; antibody sample: 4° C. 7 d
Description: as §1

[7] = biological target: T1, human SIGLEC15 on CHO-S-hSIGLEC15 cells; experiment: flow cytometry (MFI) on CHO-S-hSIGLEC15 cells; antibody sample: 25° C. 7 d
Description: as §1

[8] = biological target: T1, human SIGLEC15 on CHO-S-hSIGLEC15 cells; experiment: flow cytometry (MFI) on CHO-S-hSIGLEC15 cells; antibody sample: 0 d
Description: as §1

B1: one-armed anti-SIGLEC15 antibody 10C9-S, human IgG1-N297A (antibody)
heavy: not shown
chain: DKTHTCPPCPAPELLGGPSVFLFPPKPKDTLMISRTPEVTCVVVDVSHEDPEVKFNWYVDGVEVHNAKTKPREEQYASTYRVVSVLTVLHQDWLNGKEYKCKVSNKALPAPIEKTISKAKGQPREPQVCTLPPSREEMTKNQVSLSCAVKGFYPSDIAVEWESNGQPENNYKTTPPVLDSDGSFFLVSKLTVDKSRWQQGNVFSCSVMHEALHNHYTQKSLSLSPGK
light: DIQLTQSPLSSPVTLGQPASISCRSSQSLVNSDGETFLSWLQQRPGQPPRLLIYKISNRFSGVPDRFSGSGAGTDFTLKISRVEAEDVGVYYCMQATQFPHTFGQGTKLEIKRTVAAPSVFIFPPSDEQLKSGTASVVCLLNNFYPREAKVQWKVDNALQSGNSQESVTEQDSKDSTYSLSSTLTLSKADYEKHKVYACEVTHQGLSSPVTKSFNRGEC
notes: One-armed format; It has a full-length heavy chain with the knob (T366W), a single Fc fragment with the hole mutations (T366S, L368A, Y407V), and a full-length light chain
Question: How did the EC50 [1] turn out when B1 was run?
Answer: Its EC50 is 1.55 µg/mL.

Question: And the EC50 [2]?
Answer: Its EC50 is 2.05 µg/mL.

Question: And the EC50 [3]?
Answer: Its EC50 is 1.67 µg/mL.

Question: What about the EC50 [4] of the same binder?
Answer: Its EC50 is 1.66 µg/mL.

Question: And the EC50 [5]?
Answer: Its EC50 is 1.46 µg/mL.

Question: And the EC50 [6]?
Answer: Its EC50 is 1.63 µg/mL.

Question: And the EC50 [7]?
Answer: Its EC50 is 1.64 µg/mL.

Question: And the EC50 [8]?
Answer: The EC50 was 1.79 µg/mL.
